This is an account of results in patent US20040235112A1.

This assay deals with JNKK (UniProt P45985). The experiment in a line: cell-based or functional assay.
Chain of JNKK (P45985 whole entry): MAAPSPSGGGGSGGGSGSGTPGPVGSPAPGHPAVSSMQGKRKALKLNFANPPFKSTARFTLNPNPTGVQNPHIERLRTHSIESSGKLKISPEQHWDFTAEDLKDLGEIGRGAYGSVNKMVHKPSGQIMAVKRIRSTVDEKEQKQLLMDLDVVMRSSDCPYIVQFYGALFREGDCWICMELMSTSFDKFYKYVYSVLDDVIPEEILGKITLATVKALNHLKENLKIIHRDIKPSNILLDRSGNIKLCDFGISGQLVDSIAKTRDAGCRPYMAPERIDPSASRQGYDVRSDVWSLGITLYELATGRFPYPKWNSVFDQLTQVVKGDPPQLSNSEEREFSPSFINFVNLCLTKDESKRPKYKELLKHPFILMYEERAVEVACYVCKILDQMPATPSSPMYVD

On to MEKK (enzyme), for which the JNKK activation in COS cells cotransfected with MEKK expression vector (immune complex kinase assay with GST-JNK2) (ng expression vector) came to 125.
